The numbers were not newly measured in paper PMC11815838, which cites them from elsewhere.

For this data set, the target named is Her2 (ErbB2) ectodomain (UniProt P04626). As to the kind of experiment: SPR (surface plasmon resonance). Conditions: not stated (pH 7.4 and pH 5.0 running conditions; buffers given only in ref 2). Background: In SPR one partner is held on a chip, and binding of the other changes the refractive index at the surface.

Consider bH1 Fab variant P1 (H-N28H) H-N28H, for which the equilibrium dissociation constant (KD) by setting is: (pH 5.0) 16 nM; (pH 7.4) 3.5 nM.

bH1 Fab variant P2 (H-Y33H) H-Y33H: the KD reads like this: (pH 5.0) 1200 nM; (pH 7.4) 120 nM.

Turning to bH1 Fab variant P4 (H-Y56H) H-Y56H, the KD (pH 7.4) was 170 nM.

Turning to bH1 Fab variant P5 (H-R58H) H-R58H, the KD is, setting by setting: (pH 5.0) 98 nM; (pH 7.4) 310 nM.

Regarding bH1 Fab variant P6 (H-Y100aH) H-Y100aH, the KD (pH 7.4) was 10 nM.

bH1 Fab variant P7 (L-R30aH) L-R30aH: the KD was 17 nM (pH 5.0) and 5.7 nM (pH 7.4).

For bH1 Fab variant P8 (L-S30bH) L-S30bH, the KD (pH 5.0) was 9.9 nM and the KD (pH 7.4) was 3.4 nM.

As a reminder, the KD is the constant that tells how readily two partners part at equilibrium.
